Legend:
Assay in all cases: cell-based or functional assay
[1] = molecular target: RpPpsR2 mutant (with Q105S and L137E introduced) (NLSx3-MS2-RpPpsR2 mutant) (bacteriophage MS2; Rhodopseudomonas palustris) (UniProt P03612)
[2] = molecular target: RpPpsR2 mutant (with Q105T and L137E introduced) (NLSx3-MS2-RpPpsR2 mutant) (bacteriophage MS2; Rhodopseudomonas palustris) (UniProt P03612)
[3] = molecular target: RpPpsR2 domain-modified body D1-D2 (del C 15) (NLSx3-MS2-RpPpsR2 mutant) (bacteriophage MS2; Rhodopseudomonas palustris) (UniProt P03612)
[4] = molecular target: RpPpsR2 domain-modified body D4-D1-D2 (NLSx3-MS2-RpPpsR2 mutant) (bacteriophage MS2; Rhodopseudomonas palustris) (UniProt P03612)
[5] = molecular target: RpPpsR2 mutant L110A (NLSx3-MS2-RpPpsR2 mutant) (bacteriophage MS2; Rhodopseudomonas palustris) (UniProt P03612)

Row | Substance | light-dependent activation (ratio of NIR signal intensity to Dark signal intensity), CPTS luminescence reporter in HEK293T cells [1] | light-dependent activation (ratio of NIR signal intensity to Dark signal intensity), CPTS luminescence reporter in HEK293T cells [2] [times] | light-dependent activation (NIR against Dark), CPTS luminescence reporter in HEK293T cells [3] [times] | light-dependent activation (NIR against Dark), CPTS luminescence reporter in HEK293T cells [4] [times] | gene activation by light irradiation (NIR against Dark), CPTS luminescence reporter in HEK293T cells [5] [times]
1 | RpBphP1 mutant (with Q502A and E513A introduced) (NLSx3-RpBphP1 mutant-p65-HSF1) | 10 > | > 10 | – | – | –
2 | wild-type RpBphP1 (NLSx3-RpBphP1-p65-HSF1) | – | – | 9.6 | 7.2 | 13.4

— patent US20260001920A1
